This is an account of results in the supplement of paper PMC10126150.

± gives the standard deviation of the averaged measurements.
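Also: ATP exposure 15 min at 22 °C before imaging.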

This series has as its system ATP. In words: switch fluorescence ratio, 500 uM ATP over buffer (Cy3 cluster intensity, sum of 5 cycles each) (fold (ratio)); higher = stronger signal-on switching upon ATP binding; sequences stand for … in TCGTCGGCAGCGTCAGATGTGTATAAGAGACAGTTTTTTTTTTTTTTTTTTTTTTTTT…TC. The settings on record: aptamer strand: ATP DNA aptamer (quencher-CACCTGGGGGAGTATTGCGGAGGAAGG + anchor), 100 nM annealed; ATP concentration: 500 uM. The method in brief: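 Between each of five buffer/ATP cycles, the flow-cell was stripped with NaOH and re-annealed. Each cycle imaged Cy3-labelled switching-strand clusters, annealed to 100 nM quencher-labelled ATP aptamer on a modified Illumina MiSeq flow-cell, first in selection buffer and then after 15 min with 500 uM ATP at 22 °C. The fluorescence ratio is summed target-cycle over summed buffer-cycle Cy3 intensity per cluster, averaged per switch-domain sequence, with clusters outside 100-1000 RFU excluded.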
Consider GAGGGGCGGT, for which the switch fluorescence ratio came to 1.02 ± 0.026.

GGGTATTACT: the switch fluorescence ratio is 1.03 ± 0.017.

Turning to GGGACCGACT, the switch fluorescence ratio amounted to 1.05 ± 0.016.

Consider GGGGGGTACC, for which the switch fluorescence ratio was found to be 1.08 ± 0.13.

For TTGCTAGTAT, the switch fluorescence ratio was 1.0001 ± 0.00075.

TTTTATGAGA: the switch fluorescence ratio is 0.978 ± 0.031.

Regarding AAAAGCTTTA, the switch fluorescence ratio came to 0.983 ± 0.018.

For CGGTATCCGT, the switch fluorescence ratio is 0.978 ± 0.062.

With TCTTAGGTGG, the switch fluorescence ratio turned out to be 1.05 ± 0.016.

For the sequence AAGGCTGAGT, the switch fluorescence ratio turned out to be 1 ± 0.0011.

For GAAGGAGGGT, the switch fluorescence ratio worked out at 0.9731 ± 0.0064.

In the case of GAGGTGAAAT, the switch fluorescence ratio came out at 1.01 ± 0.027.

Turning to AGATCGCTTT, the switch fluorescence ratio amounted to 1.02 ± 0.029.

For GATGTTTTCT, the switch fluorescence ratio was 0.982 ± 0.054.

As for TTTATCGGGG, the switch fluorescence ratio is 0.988 ± 0.011.

As to GGTCAGGTGA, the switch fluorescence ratio was determined as 0.972 ± 0.073.

As to GCAGCTGTTT, the switch fluorescence ratio stood at 1.02 ± 0.044.

For AACGCGTCTG, the switch fluorescence ratio is 1.012 ± 0.0037.

Regarding TTTAAAGTGA, the switch fluorescence ratio is 1 ± 0.032.

With GAGGGGGACT, the switch fluorescence ratio was determined as 1.13 ± 0.19.

For CGAGCGGAAG, the switch fluorescence ratio was 1.03 ± 0.032.

For the sequence GTGATTTTGG, the switch fluorescence ratio is 0.9882 ± 0.0042.

As for GTTTGGCCTT, the switch fluorescence ratio turned out to be 1.04 ± 0.012.

Consider TATACGTGTG, for which the switch fluorescence ratio amounted to 1.031 ± 0.0043.

Take TTGGTAGTCA: the switch fluorescence ratio was determined as 0.992 ± 0.037.

As for GGAATGGATA, the switch fluorescence ratio amounted to 1 ± 0.035.

As to TAGGTAGGGT, the switch fluorescence ratio came out at 1.04 ± 0.073.

As to TTGGGGAATG, the switch fluorescence ratio was 0.999 ± 0.049.

For GGTTTTGTTG, the switch fluorescence ratio is 1.01 ± 0.0013.

CTGACTCCTT: the switch fluorescence ratio came out at 1.517 ± 0.015.

On to TTGGTACTTT, for which the switch fluorescence ratio stood at 0.9841 ± 0.0051.

As for AGGGGCCCGT, the switch fluorescence ratio was determined as 0.99 ± 0.038.

Take AATGAAGCTC: the switch fluorescence ratio worked out at 0.966 ± 0.051.

For AAGAGGGGTT, the switch fluorescence ratio stood at 1.03 ± 0.062.

For GCAAGAACTA, the switch fluorescence ratio is 1.042 ± 0.0016.

Take AAGTAGCGCT: the switch fluorescence ratio turned out to be 1 ± 0.024.

For the sequence CAATAGCGGT, the switch fluorescence ratio worked out at 1.05 ± 0.02.

Consider CGAGGCTAGG, for which the switch fluorescence ratio amounted to 1.07 ± 0.021.

Take GGGGGTACAC: the switch fluorescence ratio is 1.01 ± 0.025.

On to TTAATAGAGT, for which the switch fluorescence ratio stood at 1 ± 0.018.

Regarding ATCAACACCG, the switch fluorescence ratio stood at 1.06 ± 0.034.

In the case of TGTTTTAGTG, the switch fluorescence ratio stood at 0.994 ± 0.021.

As for TCGGAGGAAA, the switch fluorescence ratio is 0.999 ± 0.047.

For ATACAAGACT, the switch fluorescence ratio came out at 1.06 ± 0.03.

For ACGTCCCGGG, the switch fluorescence ratio is 1.09 ± 0.015.

On to AAACCATCCG, for which the switch fluorescence ratio stood at 1.63 ± 0.064.

Turning to TTGAGAGCAG, the switch fluorescence ratio turned out to be 1.24 ± 0.11.

TGATGTTGT: the switch fluorescence ratio is 1.005 ± 0.0071.

For the sequence TCATAAGGCG, the switch fluorescence ratio stood at 0.986 ± 0.046.

On to CGGCCAATAA, for which the switch fluorescence ratio was 3.19 ± 0.12.

As to GCAGTATACC, the switch fluorescence ratio turned out to be 1.15 ± 0.019.

Consider GTTAATAGAA, for which the switch fluorescence ratio is 0.984 ± 0.035.

Regarding TGGGAGTGGT, the switch fluorescence ratio was 1 ± 0.003.

Turning to GAAGGGGATA, the switch fluorescence ratio was found to be 1.01 ± 0.036.

With ACCTGATCGT, the switch fluorescence ratio was 1.087 ± 0.0051.

As to GATTTGGTGT, the switch fluorescence ratio turned out to be 1.03 ± 0.057.

In the case of GGGAAACTAA, the switch fluorescence ratio came out at 1.01 ± 0.031.

Regarding ATTTACTCGT, the switch fluorescence ratio amounted to 1.014 ± 0.0017.

Regarding GCTGGGGGCA, the switch fluorescence ratio came to 1.05 ± 0.098.

Consider TGGGGGTAGT, for which the switch fluorescence ratio is 0.99 ± 0.022.

As for TTAACGCCTC, the switch fluorescence ratio is 1.0315 ± 0.001.

Consider ATGGGGTTTG, for which the switch fluorescence ratio worked out at 0.974 ± 0.018.

As to CGGTGTGTCT, the switch fluorescence ratio stood at 1.02 ± 0.019.

In the case of GTTAGGAGTT, the switch fluorescence ratio is 0.941 ± 0.039.

With AAGGGCTATT, the switch fluorescence ratio came out at 1 ± 0.029.

With TTAAATAATT, the switch fluorescence ratio is 0.992 ± 0.019.
